The test system of this series is CCC(=O)O. Kind of series: purified protein.

As usually defined, the Km is the concentration of substrate that gives half-maximal velocity.

Text: hydroxamate assay of propionate kinase activity on NMB0435 (AckA1)

With “NMB0435 (AckA1) (Neisseria meningitidis MC58)”, the Km is on record as 16.3 ± 2.2 mM.

The record behind these values is paper PMC4441257, “A large genomic island allows Neisseria meningitidis to utilize propionic acid, with implications for colonization of the human nasopharynx” (Molecular Microbiology, 2014).
